According to article PMC10397807, “Automated simulation-based membrane protein refinement into cryo-EM data” (Biophysical Journal, 2023):

Target: the molecule itself
Assay: cryo-EM structure; single-particle reconstruction of maltoporin solubilized in DDM, C3 symmetry imposed, 3.0 Å

B1: maltoporin (natural protein, E. coli (endogenous in C43(DE3)), UniProt P02943 26-446, looked up)
chain: VDFHGYARSGIGWTGSGGEQQCFQTTGAQSKYRLGNECETYAELKLGQEVWKEGDKSFYFDTNVAYSVAQQNDWEATDPAFREANVQGKNLIEWLPGSTIWAGKRFYQRHDVHMIDFYYWDISGPGAGLENIDVGFGKLSLAATRSSEAGGSSSFASNNIYDYTNETANDVFDVRLAQMEINPGGTLELGVDYGRANLRDNYRLVDGASKDGWLFTAEHTQSVLKGFNKFVVQYATDSMTSQGKGLSQGSGVAFDNEKFAYNINNNGHMLRILDHGAISMGDNWDMMYVGMYQDINWDNDNGTKWWTVGIRPMYKWTPIMSTVMEIGYDNVESQRTGDKNNQYKITLAQQWQAGDSIWSRPAIRVFATYAKWDEKWGYDYTGNADNNANFGKAVPADFNGGSFGRGDSDEWTFGAQMEIWW
notes: maltoporin of Escherichia coli, endogenously expressed; native sample purified from E. coli; model fitted from PDB 1MAL and deposited as PDB 8B7V; source: endogenous, E. coli C43(DE3)
binding result: binds
